In US20230357348A1 (AstraZeneca / MedImmune, published 2023):
Starred links: 1 amine or outer side, 2 acyl side, 3 side chain; linkers in the order of their positions; H or OH if unused. Non-standard residues stand in square brackets, D forms with d. Groups on a side chain read outwards from the residue. No end group written: not given here. *: point of attachment. C20 diacid = O=C(O)CCCCCCCCCCCCCCCCCCC(=O)*; C18 diacid = O=C(O)CCCCCCCCCCCCCCCCC(=O)*; γGlu = O=C(O)[C@H](CCC(=O)[*:2])N[*:1]; αMeF = C[C@](N)(Cc1ccccc1)C(=O)O; AEEA = NCCOCCOCC(=O)O; Aib = CC(C)(N)C(=O)O

B1: Peptide 462 (peptide)
peptide: H[Aib]QGTFTSDVSK[αMeF]LDTK([AEEA-AEEA-γGlu-C18 diacid])RARDFVQWLLEAG-OH
modifications: N-terminus assumed
SMILES: CC(C)C[C@H](NC(=O)[C@H](CC(C)C)NC(=O)[C@H](Cc1c[nH]c2ccccc12)NC(=O)[C@H](CCC(N)=O)NC(=O)[C@@H](NC(=O)[C@H](Cc1ccccc1)NC(=O)[C@H](CC(=O)O)NC(=O)[C@H](CCCNC(=N)N)NC(=O)[C@H](C)NC(=O)[C@H](CCCNC(=N)N)NC(=O)[C@H](CCCCNC(=O)COCCOCCNC(=O)COCCOCCNC(=O)CC[C@H](NC(=O)CCCCCCCCCCCCCCCCC(=O)O)C(=O)O)NC(=O)[C@@H](NC(=O)[C@H](CC(=O)O)NC(=O)[C@H](CC(C)C)NC(=O)[C@](C)(Cc1ccccc1)NC(=O)[C@H](CCCCN)NC(=O)[C@H](CO)NC(=O)[C@@H](NC(=O)[C@H](CC(=O)O)NC(=O)[C@H](CO)NC(=O)[C@@H](NC(=O)[C@H](Cc1ccccc1)NC(=O)[C@@H](NC(=O)CNC(=O)[C@H](CCC(N)=O)NC(=O)C(C)(C)NC(=O)[C@@H](N)Cc1c[nH]cn1)[C@@H](C)O)[C@@H](C)O)C(C)C)[C@@H](C)O)C(C)C)C(=O)N[C@@H](CCC(=O)O)C(=O)N[C@@H](C)C(=O)NCC(=O)O
B2: Peptide 465 (peptide)
peptide: H[Aib]QGTFTSDVSK[αMeF]LDLK([AEEA-AEEA-γGlu-γGlu-C18 diacid])RAQDFVQWLL[Aib]T-OH
modifications: N-terminus assumed
SMILES: CC(C)C[C@H](NC(=O)[C@H](CC(=O)O)NC(=O)[C@H](CC(C)C)NC(=O)[C@](C)(Cc1ccccc1)NC(=O)[C@H](CCCCN)NC(=O)[C@H](CO)NC(=O)[C@@H](NC(=O)[C@H](CC(=O)O)NC(=O)[C@H](CO)NC(=O)[C@@H](NC(=O)[C@H](Cc1ccccc1)NC(=O)[C@@H](NC(=O)CNC(=O)[C@H](CCC(N)=O)NC(=O)C(C)(C)NC(=O)[C@@H](N)Cc1c[nH]cn1)[C@@H](C)O)[C@@H](C)O)C(C)C)C(=O)N[C@@H](CCCCNC(=O)COCCOCCNC(=O)COCCOCCNC(=O)CC[C@H](NC(=O)CC[C@H](NC(=O)CCCCCCCCCCCCCCCCC(=O)O)C(=O)O)C(=O)O)C(=O)N[C@@H](CCCNC(=N)N)C(=O)N[C@@H](C)C(=O)N[C@@H](CCC(N)=O)C(=O)N[C@@H](CC(=O)O)C(=O)N[C@@H](Cc1ccccc1)C(=O)N[C@H](C(=O)N[C@@H](CCC(N)=O)C(=O)N[C@@H](Cc1c[nH]c2ccccc12)C(=O)N[C@@H](CC(C)C)C(=O)N[C@@H](CC(C)C)C(=O)NC(C)(C)C(=O)N[C@H](C(=O)O)[C@@H](C)O)C(C)C
B3: Peptide 466 (peptide)
peptide: H[Aib]QGTFTSDVSK[αMeF]LDTK([AEEA-AEEA-γGlu-C18 diacid])RAQDFVQWLLE[Aib]G-NH2
modifications: N-terminus assumed
SMILES: CC(C)C[C@H](NC(=O)[C@H](Cc1c[nH]c2ccccc12)NC(=O)[C@H](CCC(N)=O)NC(=O)[C@@H](NC(=O)[C@H](Cc1ccccc1)NC(=O)[C@H](CC(=O)O)NC(=O)[C@H](CCC(N)=O)NC(=O)[C@H](C)NC(=O)[C@H](CCCNC(=N)N)NC(=O)[C@H](CCCCNC(=O)COCCOCCNC(=O)COCCOCCNC(=O)CC[C@H](NC(=O)CCCCCCCCCCCCCCCCC(=O)O)C(=O)O)NC(=O)[C@@H](NC(=O)[C@H](CC(=O)O)NC(=O)[C@H](CC(C)C)NC(=O)[C@](C)(Cc1ccccc1)NC(=O)[C@H](CCCCN)NC(=O)[C@H](CO)NC(=O)[C@@H](NC(=O)[C@H](CC(=O)O)NC(=O)[C@H](CO)NC(=O)[C@@H](NC(=O)[C@H](Cc1ccccc1)NC(=O)[C@@H](NC(=O)CNC(=O)[C@H](CCC(N)=O)NC(=O)C(C)(C)NC(=O)[C@@H](N)Cc1c[nH]cn1)[C@@H](C)O)[C@@H](C)O)C(C)C)[C@@H](C)O)C(C)C)C(=O)N[C@@H](CC(C)C)C(=O)N[C@@H](CCC(=O)O)C(=O)NC(C)(C)C(=O)NCC(N)=O
B4: Peptide 468 (peptide)
peptide: H[Aib]QGTFTSDVSK[αMeF]LDTK([AEEA-AEEA-γGlu-γGlu-C18 diacid])RAQDFVQWLLE[Aib]G-NH2
B5: Peptide 469 (peptide)
peptide: H[Aib]QGTFTSDVSK[αMeF]LDTK([AEEA-AEEA-γGlu-γGlu-C20 diacid])RAQDFVQWLLE[Aib]G-NH2
modifications: N-terminus assumed
SMILES: CC(C)C[C@H](NC(=O)[C@H](Cc1c[nH]c2ccccc12)NC(=O)[C@H](CCC(N)=O)NC(=O)[C@@H](NC(=O)[C@H](Cc1ccccc1)NC(=O)[C@H](CC(=O)O)NC(=O)[C@H](CCC(N)=O)NC(=O)[C@H](C)NC(=O)[C@H](CCCNC(=N)N)NC(=O)[C@H](CCCCNC(=O)COCCOCCNC(=O)COCCOCCNC(=O)CC[C@H](NC(=O)CC[C@H](NC(=O)CCCCCCCCCCCCCCCCCCC(=O)O)C(=O)O)C(=O)O)NC(=O)[C@@H](NC(=O)[C@H](CC(=O)O)NC(=O)[C@H](CC(C)C)NC(=O)[C@](C)(Cc1ccccc1)NC(=O)[C@H](CCCCN)NC(=O)[C@H](CO)NC(=O)[C@@H](NC(=O)[C@H](CC(=O)O)NC(=O)[C@H](CO)NC(=O)[C@@H](NC(=O)[C@H](Cc1ccccc1)NC(=O)[C@@H](NC(=O)CNC(=O)[C@H](CCC(N)=O)NC(=O)C(C)(C)NC(=O)[C@@H](N)Cc1c[nH]cn1)[C@@H](C)O)[C@@H](C)O)C(C)C)[C@@H](C)O)C(C)C)C(=O)N[C@@H](CC(C)C)C(=O)N[C@@H](CCC(=O)O)C(=O)NC(C)(C)C(=O)NCC(N)=O
B6: Peptide 470 (peptide)
peptide: H[Aib]QGTFTSDVSK[αMeF]LDKK([AEEA-AEEA-γGlu-C20 diacid])RARDFVQWLL[Aib]E-NH2
modifications: N-terminus assumed
SMILES: CC(C)C[C@H](NC(=O)[C@H](Cc1c[nH]c2ccccc12)NC(=O)[C@H](CCC(N)=O)NC(=O)[C@@H](NC(=O)[C@H](Cc1ccccc1)NC(=O)[C@H](CC(=O)O)NC(=O)[C@H](CCCNC(=N)N)NC(=O)[C@H](C)NC(=O)[C@H](CCCNC(=N)N)NC(=O)[C@H](CCCCNC(=O)COCCOCCNC(=O)COCCOCCNC(=O)CC[C@H](NC(=O)CCCCCCCCCCCCCCCCCCC(=O)O)C(=O)O)NC(=O)[C@H](CCCCN)NC(=O)[C@H](CC(=O)O)NC(=O)[C@H](CC(C)C)NC(=O)[C@](C)(Cc1ccccc1)NC(=O)[C@H](CCCCN)NC(=O)[C@H](CO)NC(=O)[C@@H](NC(=O)[C@H](CC(=O)O)NC(=O)[C@H](CO)NC(=O)[C@@H](NC(=O)[C@H](Cc1ccccc1)NC(=O)[C@@H](NC(=O)CNC(=O)[C@H](CCC(N)=O)NC(=O)C(C)(C)NC(=O)[C@@H](N)Cc1c[nH]cn1)[C@@H](C)O)[C@@H](C)O)C(C)C)C(C)C)C(=O)N[C@@H](CC(C)C)C(=O)NC(C)(C)C(=O)N[C@@H](CCC(=O)O)C(N)=O
B7: Peptide 471 (peptide)
peptide: H[Aib]QGTFTSDVSK[αMeF]LDRK([AEEA-AEEA-γGlu-C20 diacid])RARDFVQWLL[Aib]E-NH2
B8: Peptide 472 (peptide)
peptide: H[Aib]QGTFTSDVSK[αMeF]LDKK([AEEA-AEEA-γGlu-C18 diacid])RARDFVQWLL[Aib]E-NH2
modifications: N-terminus assumed
SMILES: CC(C)C[C@H](NC(=O)[C@H](Cc1c[nH]c2ccccc12)NC(=O)[C@H](CCC(N)=O)NC(=O)[C@@H](NC(=O)[C@H](Cc1ccccc1)NC(=O)[C@H](CC(=O)O)NC(=O)[C@H](CCCNC(=N)N)NC(=O)[C@H](C)NC(=O)[C@H](CCCNC(=N)N)NC(=O)[C@H](CCCCNC(=O)COCCOCCNC(=O)COCCOCCNC(=O)CC[C@H](NC(=O)CCCCCCCCCCCCCCCCC(=O)O)C(=O)O)NC(=O)[C@H](CCCCN)NC(=O)[C@H](CC(=O)O)NC(=O)[C@H](CC(C)C)NC(=O)[C@](C)(Cc1ccccc1)NC(=O)[C@H](CCCCN)NC(=O)[C@H](CO)NC(=O)[C@@H](NC(=O)[C@H](CC(=O)O)NC(=O)[C@H](CO)NC(=O)[C@@H](NC(=O)[C@H](Cc1ccccc1)NC(=O)[C@@H](NC(=O)CNC(=O)[C@H](CCC(N)=O)NC(=O)C(C)(C)NC(=O)[C@@H](N)Cc1c[nH]cn1)[C@@H](C)O)[C@@H](C)O)C(C)C)C(C)C)C(=O)N[C@@H](CC(C)C)C(=O)NC(C)(C)C(=O)N[C@@H](CCC(=O)O)C(N)=O
B9: Peptide 473 (peptide)
peptide: H[Aib]QGTFTSDVSK[αMeF]LDRK([AEEA-AEEA-γGlu-C18 diacid])RARDFVQWLL[Aib]E-NH2
modifications: N-terminus assumed
SMILES: CC(C)C[C@H](NC(=O)[C@H](Cc1c[nH]c2ccccc12)NC(=O)[C@H](CCC(N)=O)NC(=O)[C@@H](NC(=O)[C@H](Cc1ccccc1)NC(=O)[C@H](CC(=O)O)NC(=O)[C@H](CCCNC(=N)N)NC(=O)[C@H](C)NC(=O)[C@H](CCCNC(=N)N)NC(=O)[C@H](CCCCNC(=O)COCCOCCNC(=O)COCCOCCNC(=O)CC[C@H](NC(=O)CCCCCCCCCCCCCCCCC(=O)O)C(=O)O)NC(=O)[C@H](CCCNC(=N)N)NC(=O)[C@H](CC(=O)O)NC(=O)[C@H](CC(C)C)NC(=O)[C@](C)(Cc1ccccc1)NC(=O)[C@H](CCCCN)NC(=O)[C@H](CO)NC(=O)[C@@H](NC(=O)[C@H](CC(=O)O)NC(=O)[C@H](CO)NC(=O)[C@@H](NC(=O)[C@H](Cc1ccccc1)NC(=O)[C@@H](NC(=O)CNC(=O)[C@H](CCC(N)=O)NC(=O)C(C)(C)NC(=O)[C@@H](N)Cc1c[nH]cn1)[C@@H](C)O)[C@@H](C)O)C(C)C)C(C)C)C(=O)N[C@@H](CC(C)C)C(=O)NC(C)(C)C(=O)N[C@@H](CCC(=O)O)C(N)=O

These binders were tested against human GLP-1 receptor (hGLP-1R) (human, UniProt P43220 24-463) (assay: cell-based or functional assay).
For B1, the “hGLP-1R EC50 (pM)” value was 39.5 pM. B2 was tested, and the “hGLP-1R EC50 (pM)” value was 485 pM. B3 was tested, and the “hGLP-1R EC50 (pM)” value was 35.6 pM. B4 was tested, and the “hGLP-1R EC50 (pM)” value was 67.5 pM. For B5, the “hGLP-1R EC50 (pM)” value was 255 pM. In the case of B6, the “hGLP-1R EC50 (pM)” value is reported as 55.9 pM. B7 was tested, and the “hGLP-1R EC50 (pM)” value was 102 pM. B8 was tested, and the “hGLP-1R EC50 (pM)” value was 7.63 pM. For B9, the “hGLP-1R EC50 (pM)” value was 11.5 pM.

These binders were tested against human glucagon receptor (hGCGR) (human, UniProt P47871 26-477) (assay: cell-based or functional assay).
human glucagon receptor (hGCGR), sequence (P47871 26-477): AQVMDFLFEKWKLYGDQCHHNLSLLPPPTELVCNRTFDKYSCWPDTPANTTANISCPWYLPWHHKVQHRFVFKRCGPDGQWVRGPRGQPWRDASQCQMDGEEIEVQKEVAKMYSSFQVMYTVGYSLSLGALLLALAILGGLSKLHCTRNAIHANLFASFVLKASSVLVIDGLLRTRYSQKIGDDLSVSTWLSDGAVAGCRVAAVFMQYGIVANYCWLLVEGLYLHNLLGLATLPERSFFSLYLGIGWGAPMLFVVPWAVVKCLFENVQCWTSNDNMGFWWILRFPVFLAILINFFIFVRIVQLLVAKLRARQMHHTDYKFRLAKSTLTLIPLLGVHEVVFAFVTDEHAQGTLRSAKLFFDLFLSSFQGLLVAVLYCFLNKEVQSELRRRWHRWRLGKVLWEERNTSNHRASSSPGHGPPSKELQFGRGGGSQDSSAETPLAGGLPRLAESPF
For B1, the “hGluc-R EC50 (pM)” value was 89.2 pM. B2 was tested, and the “hGluc-R EC50 (pM)” value was 436 pM. With B3 the “hGluc-R EC50 (pM)” value was 131 pM. B4 was tested, and the “hGluc-R EC50 (pM)” value was 292 pM. For B5, the “hGluc-R EC50 (pM)” value was 538 pM. In the case of B6, the “hGluc-R EC50 (pM)” value is reported as 30.3 pM. In the case of B7, the “hGluc-R EC50 (pM)” value is reported as 63.6 pM. With B8 the “hGluc-R EC50 (pM)” value was 11.1 pM. With B9 the “hGluc-R EC50 (pM)” value was 14.1 pM.
